“And” between values parts separate entries of the source, which are not always exact repeats. Equal entries are not always repeated.
Molecular target: S318-510 fragment (amino acids 318-510 of the S protein of SARS-CoV strain Frankfurt 1) (SARS-CoV strain Frankfurt 1, UniProt P59594 318-510)

B1: CR03-014 (antibody, V domains shown)
VH: EVQLVESGGGLVQPGGSLRLSCAASGFTFSDHYMDWVRQAPGKGLEWVGRTRNKANSYTTEYAASVKGRFTISRDDSKNSLYLQMNSLKTEDTAVYYCARGISPFYFDYWGQGTLVTVSS
VL: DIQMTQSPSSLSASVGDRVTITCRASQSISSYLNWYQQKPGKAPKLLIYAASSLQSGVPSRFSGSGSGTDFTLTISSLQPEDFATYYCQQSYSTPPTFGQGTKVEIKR
  Kd: 16.3 nM and 14.8 nM

Source: patent US20080014204A1 (CRUCELL HOLLAND B V, published 2008)
